The values that follow come from patent US20100209939A1.

For assay [1], the target named is glycosylated human proBNP(1-108), recombinant protein from HEK293 cells (HyTest) (human) (UniProt P16860). The experiment in a line: SPR ProteOn XPR36, mAb captured by anti-Fc, soluble antigen 13-200 nM.
Assay [2] addresses human proBNP(1-108), recombinant protein produced in E. coli (HyTest), non-glycosylated (human) (UniProt P16860). The assay is described as above.
The target of assay [3] is human BNP(1-32), synthetic peptide (Sigma-Aldrich #B-5900) (human). Nature of the assay: sandwich ELISA, L21016 capture, BNP(1-32) 5 ng/ml; 50B7 0.5 µg/ml alone, no 20G7. Background: In an ELISA, binding on a coated surface is turned into a signal by an enzyme label.
Sequence of human BNP(1-32), synthetic peptide (Sigma-Aldrich #B-5900) (human) (peptide, as listed by the source): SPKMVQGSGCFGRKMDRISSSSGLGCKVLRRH
Assay [4] has the same target. The experiment in a line: sandwich ELISA, L21016 capture; BNP(1-32) 20 pg/ml.
Assay [5] shares this target. The experiment in a line: sandwich ELISA, L21016 capture; BNP(1-32) 39 pg/ml.
For assay [6] the target is unchanged. Nature of the assay: sandwich ELISA, L21016 capture; BNP(1-32) 78 pg/ml.
Assay [7] shares this target. The experiment in a line: sandwich ELISA, L21016 capture; BNP(1-32) 625 pg/ml.
For assay [8] the target is unchanged. The experiment in a line: sandwich ELISA, L21016 capture; BNP(1-32) 1,250 pg/ml.
The target is the same in assay [9]. The experiment in a line: sandwich ELISA, L21016 capture; BNP(1-32) 2,500 pg/ml.
The target is the same in assay [10]. Nature of the assay: sandwich ELISA, L21016 capture; BNP(1-32) 312.5 pg/ml.
Assay [11] shares this target. The experiment in a line: sandwich ELISA, L21016 capture; BNP(1-32) 5,000 pg/ml.
The target is the same in assay [12]. The experiment in a line: sandwich ELISA, L21016 capture; BNP(1-32) 10,000 pg/ml.
Assay [13] has the same target. Nature of the assay: sandwich ELISA, L21016 capture; BNP(1-32) 156.25 pg/ml.
Assay [14] has the same target. The experiment in a line: sandwich ELISA, L21016 capture; BNP(1-32) 0 pg/ml (blank).
Assay [15] deals with human proBNP(1-108), recombinant protein produced in E. coli (HyTest), non-glycosylated (human) (UniProt P16860). Nature of the assay: sandwich ELISA, hinge 76 capture, HRP-mAb; proBNP(1-108) 20 pg/ml.
Sequence of human proBNP(1-108), recombinant protein produced in E. coli (HyTest), non-glycosylated (human) (P16860 27-134): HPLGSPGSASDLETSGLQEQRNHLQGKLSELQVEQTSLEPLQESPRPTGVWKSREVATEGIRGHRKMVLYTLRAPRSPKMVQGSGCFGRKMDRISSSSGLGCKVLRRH
Assay [16] shares this target. Nature of the assay: sandwich ELISA, hinge 76 capture, HRP-mAb; proBNP(1-108) 39 pg/ml.
For assay [17] the target is unchanged. The experiment in a line: sandwich ELISA, hinge 76 capture, HRP-mAb; proBNP(1-108) 78 pg/ml.
Assay [18] has the same target. Nature of the assay: sandwich ELISA, hinge 76 capture, HRP-mAb; proBNP(1-108) 625 pg/ml.
Assay [19] shares this target. The experiment in a line: sandwich ELISA, hinge 76 capture, HRP-mAb; proBNP(1-108) 1,250 pg/ml.
Assay [20] shares this target. The experiment in a line: sandwich ELISA, hinge 76 capture, HRP-mAb; proBNP(1-108) 2,500 pg/ml.
Assay [21] shares this target. Nature of the assay: sandwich ELISA, hinge 76 capture, HRP-mAb; proBNP(1-108) 312.5 pg/ml.
Assay [22] has the same target. Nature of the assay: sandwich ELISA, hinge 76 capture, HRP-mAb; proBNP(1-108) 5,000 pg/ml.
The target is the same in assay [23]. The experiment in a line: sandwich ELISA, hinge 76 capture, HRP-mAb; proBNP(1-108) 10,000 pg/ml.
Assay [24] has the same target. Nature of the assay: sandwich ELISA, hinge 76 capture, HRP-mAb; proBNP(1-108) 156.25 pg/ml.
The target is the same in assay [25]. Nature of the assay: sandwich ELISA, hinge 76 capture, HRP-mAb; proBNP(1-108) 0 pg/ml (blank).
For assay [26], the target named is 24C5 monoclonal antibody (HyTest). The experiment in a line: competition ELISA: BNP(1-32) immobilised at 0.5 µg/ml, 24C5 at 0.5 µg/ml mixed with the soluble peptide, anti-mouse IgG-peroxidase; % inhibition of the binding of 24C5 to BNP(1-32).

Sequence of glycosylated human proBNP(1-108), recombinant protein from HEK293 cells (HyTest) (human) (P16860 27-134): as above

As a reminder, the Kd is the equilibrium constant for the complex coming apart. As usually defined, the koff is the first-order rate constant of dissociation. Usually kon stands for the second-order rate constant of association. hinge 76 monoclonal antibody (Bio-Rad): in assay [1], the Kd is 23.5 nM, the off-rate (koff) stood at 0.00272 s⁻¹ and the on-rate (kon) stood at 117000 M⁻¹ s⁻¹. In assay [2], the Kd turned out to be 0.173 nM, the koff was 0.000194 s⁻¹ and the on-rate (kon) is 1.12e+06 M⁻¹ s⁻¹.
As for 50B7 monoclonal antibody (HyTest), the OD 490 nm in assay [3] worked out at 1.3 OD.
Turning to 26E2 monoclonal antibody (HyTest), the OD 490 nm in assay [4] came to 0.034 OD; in assay [5], 0.032 OD; in assay [6] it was 0.055 OD; in assay [7] it was 0.029 OD; in assay [8] it was 0.031 OD; in assay [9], 0.035 OD. In addition, the OD 490 nm in assay [10] worked out at 0.027 OD; in assay [11], 0.041 OD; in assay [12], 0.048 OD; in assay [13] it was 0.032 OD; in assay [14], 0.022 OD. The OD was determined as 0.028 OD in [15]; 0.028 OD in [16]; 0.033 OD in assay [17]; 0.024 OD in assay [18]; 0.024 OD in assay [19]; 0.031 OD in assay [20]. Also, the OD in [21] turned out to be 0.028 OD; in assay [22] it was 0.041 OD; in [23], 0.158 OD; in [24], 0.027 OD; in assay [25] it was 0.024 OD.
On to 24C5 monoclonal antibody (HyTest), for which the OD 490 nm in assay [4] turned out to be 0.068 OD; in assay [5], 0.055 OD; in assay [6], 0.052 OD; in [7] it was 0.059 OD; in assay [8] it was 0.056 OD; in [9], 0.067 OD. Further, the OD 490 nm in assay [10] was 0.063 OD; in [11], 0.068 OD; in assay [12], 0.077 OD; in assay [13], 0.071 OD; in assay [14], 0.071 OD. Further, the OD stood at 0.052 OD in [15]; 0.056 OD in [16]; 0.056 OD in assay [17]; 0.07 OD in assay [18]; 0.068 OD in [19]; 0.069 OD in assay [20]. Further, the OD in assay [21] came to 0.035 OD; in assay [22], 0.117 OD; in assay [23], 0.22 OD; in assay [24], 0.055 OD; in assay [25], 0.044 OD.
AGRKMDR [mutated epitope peptide A11GRKMDR17 (SEQ ID NO: 62)] showed an IC50 (read off the curve) in assay [26] of 2 µg/mL.
